Assay results as given in paper PMC10635571.

Target: hnRNPK (human (endogenous in HeLa)) (UniProt P61978)
Experiment: native gel or EMSA; blue native PAGE (4-13%) of the lhCLIP sample: HeLa cells UV-crosslinked, lysate immunoprecipitated with anti-hnRNPK, MNase digestion, pCp-biotin labelling, ligation, eluted from beads at 70°C for 10 min without reducing agents; blotted with anti-hnRNPK antibody

Substance: hnRNPK, P61978 1-463 (natural protein; other documents disagree on this pair)
- stoichiometry N: 2
